We go through 1 molecule from EP4786495A1 (Nanjing Leads Biolabs Co., Ltd., dated 2026).

For test [1], the target named is T1, human APRIL protein (ACRO Biosystems, Cat. No.: APL-H52D1) (human, UniProt O75888 115-250, limits assumed).
T1 sequence (looked up): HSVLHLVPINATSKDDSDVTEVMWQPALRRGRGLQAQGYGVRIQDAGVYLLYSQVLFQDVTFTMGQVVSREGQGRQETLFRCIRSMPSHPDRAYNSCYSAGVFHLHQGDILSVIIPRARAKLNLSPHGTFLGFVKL
As to the kind of experiment: BLI Octet RED96e, protein captured on AHC sensor, APRIL 1.56-100 nM in solution. For orientation: Biolayer interferometry detects binding as a change in optical thickness at a sensor tip.

Test [2] deals with T2, human BDCA2 protein (Kactus Biosystems, Cat# BCA-HM402) (human, UniProt Q8WTT0 45-213).
T2 construct: also called Human BDCA2-His
T2 sequence: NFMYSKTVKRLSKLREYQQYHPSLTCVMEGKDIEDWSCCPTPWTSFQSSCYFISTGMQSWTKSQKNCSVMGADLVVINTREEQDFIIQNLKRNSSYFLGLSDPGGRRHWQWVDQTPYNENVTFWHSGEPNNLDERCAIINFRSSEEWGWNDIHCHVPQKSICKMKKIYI
Kind of test: BLI Octet RED96e, fusion protein captured on AHC sensor, BDCA2 1.56-100 nM in solution.

The target of test [3] is T3, human FcRn protein (ACRO Biosystems, Cat. No.: FCM-H82W4) (human, UniProt P55899 24-297; P61769 21-119). Kind of test: BLI Octet RED96e, FcRn on SA sensor, fusion protein 3.13-200 nM; binding pH 6.0, dissociation pH 7.4.
T3 sequence (P55899 24-297 limits assumed, chain 1 of 2): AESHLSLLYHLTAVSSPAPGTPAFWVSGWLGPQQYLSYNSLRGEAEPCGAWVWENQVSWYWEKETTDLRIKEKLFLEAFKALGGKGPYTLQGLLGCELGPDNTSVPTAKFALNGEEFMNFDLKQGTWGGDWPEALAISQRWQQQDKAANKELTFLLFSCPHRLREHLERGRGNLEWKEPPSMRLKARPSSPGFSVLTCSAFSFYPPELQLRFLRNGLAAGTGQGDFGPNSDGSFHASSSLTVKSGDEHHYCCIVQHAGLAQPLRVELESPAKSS
T3 sequence (P61769 21-119 limits assumed, chain 2 of 2): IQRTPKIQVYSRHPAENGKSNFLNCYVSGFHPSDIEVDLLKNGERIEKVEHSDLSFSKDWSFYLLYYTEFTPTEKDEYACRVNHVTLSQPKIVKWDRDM
Test [4] deals with T3, human FcRn protein (ACRO Biosystems, …). As to the kind of experiment: BLI Octet RED96e, FcRn on SA sensor, fusion protein 3.13-200 nM; binding pH 6.0, dissociation pH 6.0.
In test [5] the target is human BAFF protein (ACRO Biosystems, Cat. No.: BAF-H52D4) (human, UniProt Q9Y275 134-285). As to the kind of experiment: BLI Octet RED96e, protein captured on AHC sensor, BAFF 1.56-100 nM in solution.
human BAFF protein (ACRO Biosystems, Cat. No.: BAF-H52D4), sequence (Q9Y275 134-285 limits assumed): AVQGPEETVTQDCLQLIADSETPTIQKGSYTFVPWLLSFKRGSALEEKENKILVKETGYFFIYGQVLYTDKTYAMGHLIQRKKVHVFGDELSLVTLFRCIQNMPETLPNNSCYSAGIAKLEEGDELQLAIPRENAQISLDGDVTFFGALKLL

Bounds are passed on as bounds.

In general, Kd refers to the free concentration of one partner at which half of the binding sites on the other are occupied at equilibrium, for simple one-to-one binding. A high value points to weaker binding. A word on the koff: it is a measure of how fast the partners let go of each other. A higher koff goes with a short-lived complex. The term kon denotes a measure of how fast the partners come together.

B1: bispecific fusion protein having YTE mutations in the Fc region BI-9ND2-A-YTE (bispecific antibody, human IgG1, kappa)
heavy: SLSCRKEQGKFYDHLLRDCISCASICGQHPKQCAYFCENGGGGSGGGGSGGGGSQVQLVQSGAEVKKPGASVKVSCKASGYTFTDFAVHWVRQAPGQRLEWMGLIGTSSGSTNYNQKFQGRATMTVDKSANTAYMELSSLRSEDTAVYYCARNGYYVGYYALDYWGQGTTVTVSSASTKGPSVFPLAPSSKSTSGGTAALGCLVKDYFPEPVTVSWNSGALTSGVHTFPAVLQSSGLYSLSSVVTVPSSSLGTQTYICNVNHKPSNTKVDKKVEPKSCDKTHTCPPCPAPELLGGPSVFLFPPKPKDTLYITREPEVTCVVVDVSHEDPEVKFNWYVDGVEVHNAKTKPREEQYNSTYRVVSVLTVLHQDWLNGKEYKCKVSNKALPAPIEKTISKAKGQPREPQVYTLPPSRDELTKNQVSLTCLVKGFYPSDIAVEWESNGQPENNYKTTPPVLDSDGSFFLYSKLTVDKSRWQQGNVFSCSVMHEALHNHYTQKSLSLSPGK
light: ETVLTQSPATLSLSPGERATLSCRASSSVSYMYWFQQKPGQAPRLLIYSTSNLASGIPARFSGSGSGTDYTLTISSLEPEDFAVYYCQQRRNYPHTFGGGTKVEIKRTVAAPSVFIFPPSDEQLKSGTASVVCLLNNFYPREAKVQWKVDNALQSGNSQESVTEQDSKDSTYSLSSTLTLSKADYEKHKVYACEVTHQGLSSPVTKSFNRGEC
notes: also called heavy chain 37F2C6-HuVH3-ND2-YTE
Regarding B1, the dissociation constant Kd in test [1] was below 1 pM; in test [2] it was below 1 pM; in test [3], 727 nM; in test [4], 5.12 nM; in test [5], 0.0384 nM. The off-rate (koff) in test [1] was below 1e-07 s⁻¹; in test [2], below 1e-07 s⁻¹; in test [3], 0.0888 s⁻¹; in test [4], 0.0062 s⁻¹; in test [5], 1.97e-05 s⁻¹. In addition, the on-rate (kon) in test [1] came to 981000 M⁻¹ s⁻¹; in test [2], 100000 M⁻¹ s⁻¹; in test [3], 122000 M⁻¹ s⁻¹; in test [4], 1.21e+06 M⁻¹ s⁻¹; in test [5] it was 515000 M⁻¹ s⁻¹.
